Assays:
Experiment in all cases: cleavage_in_vitro
[1] = tested on: T1, OMNI-107 (metagenomic, unknown); conditions: TXTL; PAM NNNAANNN
T1 sequence: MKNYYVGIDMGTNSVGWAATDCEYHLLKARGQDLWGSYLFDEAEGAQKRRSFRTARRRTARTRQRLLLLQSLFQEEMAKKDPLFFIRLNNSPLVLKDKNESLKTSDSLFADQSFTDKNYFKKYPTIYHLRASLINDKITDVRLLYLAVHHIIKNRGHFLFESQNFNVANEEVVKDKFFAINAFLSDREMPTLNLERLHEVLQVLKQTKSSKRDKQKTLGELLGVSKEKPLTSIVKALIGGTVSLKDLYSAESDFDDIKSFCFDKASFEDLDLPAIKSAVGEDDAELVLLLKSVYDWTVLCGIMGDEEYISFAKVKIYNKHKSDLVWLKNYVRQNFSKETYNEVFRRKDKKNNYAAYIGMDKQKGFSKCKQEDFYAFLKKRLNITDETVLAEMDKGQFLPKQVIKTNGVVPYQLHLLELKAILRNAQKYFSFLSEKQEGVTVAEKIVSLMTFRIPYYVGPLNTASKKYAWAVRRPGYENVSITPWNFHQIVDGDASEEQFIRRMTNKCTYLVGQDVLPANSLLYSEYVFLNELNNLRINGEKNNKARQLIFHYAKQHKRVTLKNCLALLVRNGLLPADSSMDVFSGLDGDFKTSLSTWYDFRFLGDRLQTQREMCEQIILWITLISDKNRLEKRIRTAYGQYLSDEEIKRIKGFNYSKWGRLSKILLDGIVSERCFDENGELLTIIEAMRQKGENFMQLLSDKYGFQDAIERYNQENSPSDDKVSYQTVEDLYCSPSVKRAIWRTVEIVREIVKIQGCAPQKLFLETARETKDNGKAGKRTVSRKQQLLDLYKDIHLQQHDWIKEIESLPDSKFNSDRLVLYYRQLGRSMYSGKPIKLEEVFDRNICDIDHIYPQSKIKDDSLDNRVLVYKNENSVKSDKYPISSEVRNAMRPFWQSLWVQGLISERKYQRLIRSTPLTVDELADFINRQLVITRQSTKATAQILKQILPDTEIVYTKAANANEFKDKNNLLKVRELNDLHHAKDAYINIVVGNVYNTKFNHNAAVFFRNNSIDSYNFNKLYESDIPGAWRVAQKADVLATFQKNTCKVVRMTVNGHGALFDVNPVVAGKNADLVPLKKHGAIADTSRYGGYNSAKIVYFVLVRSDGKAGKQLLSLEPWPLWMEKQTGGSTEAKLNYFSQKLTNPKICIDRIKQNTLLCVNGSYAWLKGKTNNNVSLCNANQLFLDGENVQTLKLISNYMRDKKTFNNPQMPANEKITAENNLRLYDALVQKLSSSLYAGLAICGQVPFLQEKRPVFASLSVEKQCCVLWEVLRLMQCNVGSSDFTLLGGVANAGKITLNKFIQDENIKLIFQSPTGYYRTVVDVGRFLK

[2] = tested on: T2, OMNI-97 (metagenomic, unknown); conditions: TXTL; PAM NNRCCANN
T2 sequence: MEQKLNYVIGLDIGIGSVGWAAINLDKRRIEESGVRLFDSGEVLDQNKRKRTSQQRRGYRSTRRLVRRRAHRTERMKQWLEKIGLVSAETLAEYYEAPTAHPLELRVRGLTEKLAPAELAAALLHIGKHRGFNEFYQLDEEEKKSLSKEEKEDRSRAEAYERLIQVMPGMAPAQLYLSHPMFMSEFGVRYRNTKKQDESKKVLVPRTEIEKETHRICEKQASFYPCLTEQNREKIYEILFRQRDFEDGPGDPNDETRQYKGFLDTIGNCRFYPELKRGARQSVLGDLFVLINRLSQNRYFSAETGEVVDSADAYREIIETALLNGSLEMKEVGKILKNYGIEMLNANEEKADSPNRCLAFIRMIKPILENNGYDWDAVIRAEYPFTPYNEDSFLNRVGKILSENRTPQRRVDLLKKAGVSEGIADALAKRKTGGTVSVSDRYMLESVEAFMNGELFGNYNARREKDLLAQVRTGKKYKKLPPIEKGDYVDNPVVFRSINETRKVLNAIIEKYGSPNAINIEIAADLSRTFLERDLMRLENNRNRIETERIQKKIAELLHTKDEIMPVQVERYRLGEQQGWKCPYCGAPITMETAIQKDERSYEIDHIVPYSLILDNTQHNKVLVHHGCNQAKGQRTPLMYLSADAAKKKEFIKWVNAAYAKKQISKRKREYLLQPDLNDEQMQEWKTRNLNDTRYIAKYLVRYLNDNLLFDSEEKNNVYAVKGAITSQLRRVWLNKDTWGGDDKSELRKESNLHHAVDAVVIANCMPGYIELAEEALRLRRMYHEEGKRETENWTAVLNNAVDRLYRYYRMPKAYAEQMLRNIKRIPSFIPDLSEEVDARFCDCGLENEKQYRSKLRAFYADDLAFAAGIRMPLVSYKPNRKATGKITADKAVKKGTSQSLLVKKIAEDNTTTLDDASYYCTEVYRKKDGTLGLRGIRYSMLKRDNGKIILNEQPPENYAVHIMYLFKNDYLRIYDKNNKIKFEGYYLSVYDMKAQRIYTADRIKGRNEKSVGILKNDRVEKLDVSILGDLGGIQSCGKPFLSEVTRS

[3] = tested on: T3, OMNI-134 (metagenomic, unknown); conditions: TXTL; PAM NRAANYNN
T3 sequence: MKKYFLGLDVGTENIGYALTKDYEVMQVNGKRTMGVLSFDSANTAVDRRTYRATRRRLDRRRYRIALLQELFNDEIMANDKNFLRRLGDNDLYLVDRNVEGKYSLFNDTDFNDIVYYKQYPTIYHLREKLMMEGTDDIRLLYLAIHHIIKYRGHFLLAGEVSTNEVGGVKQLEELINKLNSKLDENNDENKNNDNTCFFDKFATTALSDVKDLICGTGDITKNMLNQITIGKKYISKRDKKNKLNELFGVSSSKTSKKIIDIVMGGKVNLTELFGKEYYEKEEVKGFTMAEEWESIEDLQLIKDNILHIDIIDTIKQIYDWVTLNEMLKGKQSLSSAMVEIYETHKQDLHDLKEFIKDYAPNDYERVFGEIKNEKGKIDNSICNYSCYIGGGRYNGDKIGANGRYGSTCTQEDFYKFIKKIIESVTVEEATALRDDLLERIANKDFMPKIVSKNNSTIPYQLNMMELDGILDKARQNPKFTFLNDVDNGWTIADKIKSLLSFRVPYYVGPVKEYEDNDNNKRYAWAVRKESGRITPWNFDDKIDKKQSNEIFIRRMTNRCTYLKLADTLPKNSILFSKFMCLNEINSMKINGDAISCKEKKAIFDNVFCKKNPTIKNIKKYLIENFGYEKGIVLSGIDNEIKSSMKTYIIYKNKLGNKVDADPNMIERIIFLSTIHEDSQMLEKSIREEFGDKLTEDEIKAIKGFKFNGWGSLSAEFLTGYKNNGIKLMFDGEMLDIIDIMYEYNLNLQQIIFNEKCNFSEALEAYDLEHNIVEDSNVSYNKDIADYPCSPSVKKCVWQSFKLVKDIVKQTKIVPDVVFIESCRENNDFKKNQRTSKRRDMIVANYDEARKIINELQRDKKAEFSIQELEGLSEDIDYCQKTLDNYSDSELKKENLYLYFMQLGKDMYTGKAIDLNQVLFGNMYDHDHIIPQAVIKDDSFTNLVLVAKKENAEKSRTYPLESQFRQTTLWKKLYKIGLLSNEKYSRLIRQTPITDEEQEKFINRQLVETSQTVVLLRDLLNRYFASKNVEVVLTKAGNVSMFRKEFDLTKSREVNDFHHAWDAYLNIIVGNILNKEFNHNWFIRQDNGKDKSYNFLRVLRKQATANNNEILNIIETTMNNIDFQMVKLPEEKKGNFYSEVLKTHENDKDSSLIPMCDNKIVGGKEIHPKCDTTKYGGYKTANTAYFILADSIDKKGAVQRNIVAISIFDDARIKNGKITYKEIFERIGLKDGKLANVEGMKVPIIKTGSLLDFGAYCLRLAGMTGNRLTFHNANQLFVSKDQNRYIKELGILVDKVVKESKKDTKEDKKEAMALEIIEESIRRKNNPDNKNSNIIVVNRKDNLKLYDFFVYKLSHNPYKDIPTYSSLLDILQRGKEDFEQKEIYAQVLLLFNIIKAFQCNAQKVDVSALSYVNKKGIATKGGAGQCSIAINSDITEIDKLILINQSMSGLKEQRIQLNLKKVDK

With “GGAAGAGCAGAGCCUUGGUCUCGUUUGAGUAUGGUGUUAGAAAUAACACCAUUAGUUCAAAUAAGAUUUUUUCAAAUCGCCGAUUUUUCGGUAGUACACGAUGUGUACAUUUUUU / GGAAGAGCAGAGCCTTGGTCTCNNNNNNNN / NNNNNNNNGAGACCAAGGCTCTGCTCTTCC [T2 sgRNA 16 V3 ; T2 protospacer + 8N PAM library (pbPOS T2)]” the activity (1-depletion score) [1] was 0.83.
With “GGAAGAGCAGAGCCUUGGUCUCGUUUUGGGCCUCUGAUGGGAAACCAUCAGAGACCUGAGAUAAGGCUUUAUGCCGUAGGGUAUGGCGGUAACCCGGAGUAUUCCGAAUCCGCUUUUUCUUUGCCUGUAAAUACAGUAUAACAUAUUAUUUCGUCCUUUUUU / GGAAGAGCAGAGCCTTGGTCTCNNNNNNNN / NNNNNNNNGAGACCAAGGCTCTGCTCTTCC [T2 sgRNA 8 V1 ; T2 protospacer + 8N PAM library (pbPOS T2)]” the activity (1-depletion score) [2] was 0.93.
Sequence “GGAAGAGCAGAGCCUUGGUCUCGUUUGAGUAUGGUGUUAGAAAUAACACCAUUAGUUCAAAUAAGAUUUUUUCAAAUCGCCGAUUUUUCGGUAGUACACGAUGUGUACAUUGGAUCUGUUGCAAGACAGGUCCUUUUUUU / GGAAGAGCAGAGCCTTGGTCTCNNNNNNNN / NNNNNNNNGAGACCAAGGCTCTGCTCTTCC [T2 sgRNA 16 V1 ; T2 protospacer + 8N PAM library (pbPOS T2)]” has an activity (1-depletion score) [1] of 0.7.
For “GGAAGAGCAGAGCCUUGGUCUCGUUAUUUUGAAUACUAGAAAGUGUAUUUAAAGUAAAUAAAAAGUUAAAUUUAAAGAUAAAAGUAAAUAAUUAGUAAAUUAACUUCUGAUAAUGUGAAAUUCAUUUGUUUUUU / GGAAGAGCAGAGCCTTGGTCTCNNNNNNNN / NNNNNNNNGAGACCAAGGCTCTGCTCTTCC [T2 sgRNA 39 V1 ; T2 protospacer + 8N PAM library (pbPOS T2)]”, the activity (1-depletion score) [3] was 0.99.
With “GGAAGAGCAGAGCCUUGGUCUCGUUUGAGAGUAUUGUUGAAAAACAAUCGUUCAAAUAAGGUUUUACCUUAAGCAUCCUAUUGGAUCAGUCGACUAAUCAGAGUCGACUAUUUUUU / GGAAGAGCAGAGCCTTGGTCTCNNNNNNNN / NNNNNNNNGAGACCAAGGCTCTGCTCTTCC [T2 sgRNA 19 V1 ; T2 protospacer + 8N PAM library (pbPOS T2)]” the activity (1-depletion score) [3] was 0.98.
Sequence “GGAAGAGCAGAGCCUUGGUCUCGUUUUGGGCCUCUGAUGGGAAACCAUCAGAGACCUGAGAUAAGGCUUUAUGCCGUAGGGUAUGGCGGUAACCCGGAGUAUUCCGAAUCCGCUUUUUUU / GGAAGAGCAGAGCCTTGGTCTCNNNNNNNN / NNNNNNNNGAGACCAAGGCTCTGCTCTTCC [T2 sgRNA 8 V3 ; T2 protospacer + 8N PAM library (pbPOS T2)]” has an activity (1-depletion score) [2] of 0.97.
Sequence “GGAAGAGCAGAGCCUUGGUCUCGUUUGAGAGUAUUGUUAUUGAAAAAUAACAAUCGUUCAAAUAAGGUUUUACCUUAAGCAUCCUAUUGGAUCAGUCGACUAACCAGAGUCGACUAUUUUUU / GGAAGAGCAGAGCCTTGGTCTCNNNNNNNN / NNNNNNNNGAGACCAAGGCTCTGCTCTTCC [T2 sgRNA 34 V1 ; T2 protospacer + 8N PAM library (pbPOS T2)]” has an activity (1-depletion score) [3] of 0.94.

— patent publication US20240425885
